{
  "source": "paper PMC3045386",
  "origin": "cited, not measured here",
  "target": "Ran (Homo sapiens) (UniProt P62826)",
  "note": "pKd: −log10 of the molar value.",
  "data": [
    {"substance": "RanBP3 (from UniProt Q9H6Z4)", "values": [
      {"measurement": "pKd", "value": 5.00}
    ]}
  ]
}
